From patent US20250188151A1, “C-JUN ANTAGONIST PEPTIDES” (The University of Bath, priority 2022, published 2025)

Experiments:
[1] = molecular target: T1, cJun bZIP/TRE DNA interaction (transcriptional block of TRE-mDHFR) (Homo sapiens, UniProt P05412, S292Y); experiment: Transcription Block Survival (TBS) assay: colony counting and growth competition in E. coli; assay type: cell-based
T1 construct: expressed in transfected cells; host or cells: E. coli BL21 Gold carrying pES300d-TRE-mDHFR and pES230d-cJun bZIP
Source text: Library Construction and TBS Assay: Library inserts were produced using PCR fill-in reactions from synthesised primers (Sigma) with degenerate codons at the desired positions to produce the correct residue options. The library was subcloned using SacI and AscI sites into the pET24a plasmid containing A-FosW. The primers used were cJun-Hinge-Lib-F: 5′-[…] TATGCC-3′ (SEQ ID NO: 49) and cJun-Hinge-Lib_R: 5′-[…] GTTC-3′ (SEQ ID NO: 50). The library DNA was transformed into NEB 10-beta electrocompetent E. coli cells. The following equation was utilised to determine library coverage by the number of single colonies: E=100×(1−1/n)^m where E is the percentage of the library missing, m is the number of colonies collected and n is the library size. […] Library DNA quality was assessed by sequencing both the DNA pool and a number of single colonies to show degenerate codons in the correct positions in the pool and to show a diversity of library members from single colonies. The pool of library DNA was transformed into BL21 Gold cells already containing pES300d-TRE-mDHFR and pES230d-cJun bZIP.
Selective pressure is applied by growing the bacteria in M9 minimal media with TMP (2-4 μM) alongside ampicillin, kanamycin and chloramphenicol to maintain the required plasmids, and IPTG (1 mM) to induce protein expression. The library transformants were first plated out onto selective agar plates (2 μM TMP) and grown at 37° C. for 72-96 h. Optimisation experiments (FIG. 5) indicate that 4 μM TMP is optimum for selection however a lower stringency is used initially before selection is increased in later steps. Colonies from this first round of selection were pooled and serially grown in liquid culture at starting OD600 of 0.05 and grown at 37° C. with shaking at 200 rpm until the OD600 reached 0.6. TMP concentration was 2 μM in the first liquid culture passage before it was increased to the optimum 4 μM in subsequent passages. […] At each passage step, a sample of the culture was plated on LB agar (supplemented with antibiotics to maintain plasmids) to select and sequence individual colonies, and a DNA pool was also sequenced. This allows the occurrence of library members to be monitored as winner sequences are selected for. Assay Validation experiments utilised a modified assay methodology whereby overnight cultures from glycerol stocks of the Control Strains (Table 2) were diluted to OD600=0.5 and 50 μL was plated on a selective M9 minimal medium agar plate.
Transcription block survival (TBS) is an intracellular assay that utilises cell survival as a readout. […] This enzyme is absolutely essential for survival since it is required for the production of purines needed for DNA and amino acid synthesis. […]. We produced a mDHFR gene (FIGS. 2 and 3) by rational design to introduce 15 TRE sites into the coding DNA sequence to allow a robust cJun transcriptional block whilst minimising alteration to the expressed protein (TRE-mDHFR). In particular, the resulting TRE-mDHFR construct was produced via two silent and thirteen conservative mutations. […] The accessible surface areas of all other amino acid residues were calculated using the ‘Accessible Surface Area and Accessibility Calculation for Protein’ tool (http://cib.cf.ocha.ac.jp/bitool/ASA/). […]

[2] = molecular target: T2, cJun bZIP (human, UniProt P05412 252-308, limits assumed); experiment: ITC (PEAQ-ITC), peptide injected into cJun, one site model; Table 7 ITC, run at a lower temperature than the earlier 1/cJun ITC measurement
T2 construct: Purified from a His-SUMO fusion with the tag cleaved off; also called c-Jun bZIP domain; 60 amino acid c-Jun bZIP construct
T2 chain: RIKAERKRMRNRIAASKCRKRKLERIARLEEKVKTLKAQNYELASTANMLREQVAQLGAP

[3] = molecular target: T2, cJun bZIP; experiment: ITC
[4] = molecular target: T2, cJun bZIP
[5] = molecular target: T2, cJun bZIP
[6] = molecular target: T2, cJun bZIP
[7] = Serum stability (LC-MS); assay type: in vitro ADME; conditions: human serum, 37° C.
Experimental: Serum Stability: Peptide stocks (600 μM) were prepared in water and 50 μL added to 950 μL human serum (Merck) before incubation at 37° C. […] The supernatant was analysed by LC-MS and quantified using the sum of the two largest charge state intensities (1: 9+, 10+; 23,24: 3+, 4+).

[8] = molecular target: T2, cJun bZIP; experiment: cell-based or functional assay

B1: HingeW (peptide)
peptide: MASLEQRAEELARENEELEKEAEELVVEEDVLEEEIEQLEERNYALRKEIEDLQKQLEKLGAPHHHHHH
notes: Recombinant, capped (MAS at the N-terminus, GAP at the C-terminus) and C-terminally 6xHis-tagged, 69 amino acids; also called peptide 1
direct competition in liquid culture, sequence observed by DNA sequencing ([1]; equal numbers of TBS cells with A-FosW or HingeW, after three passages): only HingeW was observed
effect on TRE-mDHFR transcriptional block / colony numbers ([1]; vs transcriptionally blocked cells (TRE-mDHFR + cJun bZIP)): restore cell survival
Kd [2]: 0.00021 µM
fold increase in binding affinity against A-FosW [3]: 6 fold
increase in heterodimer Tm against A-FosW/cJun [4]: 1.3 ° C.
ΔTm from component average (CD) [5]: ~40 ° C.
Tm (° C.) (CD) [6]: 71.2 ° C.
peak intensities relative to starting values ([7]; after 96 hours): no peaks corresponding to 1 are observed
degraded ([7]; at 24 hours): 67%
half-life ([7]; exponential decay fit): 18.9 h
IC50 CD [8]: 13.4 µM
